Experimental findings from paper PMC3547035, “Investigating the Antiproliferative Activity of High Affinity DNA Aptamer on Cancer Cells” are described below.

One data set has as its target VEGF121 (Homo sapiens, UniProt P15692-9 27-147). In words: SPR; SPR BIAcore 2000, CM5 chip, immobilized protein ~200 RU, PBS + Tween-20 running buffer (pH not stated), 25 C, aptamer 0.2-100 nM, 1:1 Langmuir fit. The following applies: protein: recombinant; tags: carrier free; chain copies: 2; hairpin (CD). For orientation: Surface plasmon resonance follows binding to a sensor surface in real time, without labels.

The next data set has as its target VEGF165 (Homo sapiens, UniProt P15692-4 27-191). The data set is described as above. The following applies: protein: recombinant; tags: carrier free; chain copies: 2; hairpin (CD).

VEGF121, sequence (P15692 other isoform, or with tags, fused parts or gaps): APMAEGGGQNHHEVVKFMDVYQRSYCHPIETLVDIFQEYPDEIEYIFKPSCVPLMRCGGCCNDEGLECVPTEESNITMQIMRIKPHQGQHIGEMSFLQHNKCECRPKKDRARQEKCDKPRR
VEGF165, sequence (P15692 other isoform, or with tags, fused parts or gaps): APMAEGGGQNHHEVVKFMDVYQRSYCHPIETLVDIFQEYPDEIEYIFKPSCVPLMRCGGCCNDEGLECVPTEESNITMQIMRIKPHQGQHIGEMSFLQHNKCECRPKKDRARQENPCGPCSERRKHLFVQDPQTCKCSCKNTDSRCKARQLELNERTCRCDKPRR

Turning to CAATTGGGCCCGTCCGTATGGTGGGT (XNA, phosphorothioate linkages C1*A2 and G25*T26) [PS-modified SL2-B], the Kd – broadly, the free concentration of one partner at which half of the binding sites on the other are occupied at equilibrium, for simple one-to-one binding – in the data set with VEGF121 was 17 ± 1.24 µM; with VEGF165, 0.00056 ± 0.00044 µM.
